Laboratory results: the supplement of paper PMC9112550, “Optimization of the antimicrobial peptide Bac7 by deep mutational scanning” (BMC Biology, 2022)

Tested on: Escherichia coli TOP10
Assay: shrunken log2 fold change of peptide-encoding DNA abundance (4.5 h post-induction vs induction); higher = less antimicrobial activity (less host growth inhibition)
Conditions: time post-induction: 4.5 h; library: site-saturation at positions 5, 18, 19, 20
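Further: peptides expressed intracellularly from a pBAD plasmid library in pooled LB shake-flask culture, induced with 0.3% L-arabinose, DNA abundance read by NGS, three biological replicates, DESeq2 with apeglm shrinkage.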

Sequence	shrunken log2 fold change
RRIRLRPPRLPRPRPRPFPFPRP	-0.254
RRIRTRPPRLPRPRPRPNCVPRP	0.00481
RRIRRRPPRLPRPRPRPSYHPRP	-0.368
RRIRGRPPRLPRPRPRPYQPPRP	-0.257
RRIRYRPPRLPRPRPRPQYRPRP	-0.148
RRIRSRPPRLPRPRPRPWSAPRP	-0.027
RRIRERPPRLPRPRPRPKNNPRP	-0.464
RRIRGRPPRLPRPRPRPAFWPRP	0.71
RRIRMRPPRLPRPRPRPIEFPRP	0.103
RRIRWRPPRLPRPRPRPRSGPRP	0.345
RRIRVRPPRLPRPRPRPCKSPRP	-0.214
RRIRIRPPRLPRPRPRPKTHPRP	-0.203
RRIRRRPPRLPRPRPRPCDRPRP	0.0985
RRIRCRPPRLPRPRPRPYCDPRP	-0.623
RRIRLRPPRLPRPRPRPEQNPRP	0.41
RRIRLRPPRLPRPRPRPFYGPRP	-0.157
RRIRNRPPRLPRPRPRPFMFPRP	-0.399
RRIRKRPPRLPRPRPRPENHPRP	-0.229
RRIRGRPPRLPRPRPRPWQEPRP	-0.0457
RRIRPRPPRLPRPRPRPHYNPRP	-0.769
RRIRERPPRLPRPRPRPFVVPRP	-0.0043
RRIRNRPPRLPRPRPRPLNIPRP	-0.389
RRIRGRPPRLPRPRPRPMYWPRP	-0.0689
RRIRCRPPRLPRPRPRPLNSPRP	-0.605
RRIRHRPPRLPRPRPRPFFVPRP	-0.224

Sequence	shrunken log2 fold change
RRIRSRPPRLPRPRPRPWNCPRP	-0.223
RRIRLRPPRLPRPRPRPDMHPRP	3.46
RRIRDRPPRLPRPRPRPGFDPRP	0.926
RRIRPRPPRLPRPRPRPGLFPRP	0.162
RRIRWRPPRLPRPRPRPQKPPRP	0.0546
RRIRYRPPRLPRPRPRPKSNPRP	-0.206
RRIRCRPPRLPRPRPRPFCGPRP	0.011
RRIRNRPPRLPRPRPRPPNGPRP	-0.00827
RRIRFRPPRLPRPRPRPSGEPRP	-0.135
RRIRDRPPRLPRPRPRPCQMPRP	-0.00455
RRIRNRPPRLPRPRPRPEAHPRP	-0.0208
RRIRNRPPRLPRPRPRPQFQPRP	0.0437
RRIRVRPPRLPRPRPRPTEEPRP	0.0849
RRIRMRPPRLPRPRPRPTIKPRP	0.0703
RRIRDRPPRLPRPRPRPIFGPRP	0.0916
RRIRCRPPRLPRPRPRPQKCPRP	-0.0526
RRIRCRPPRLPRPRPRPPNKPRP	-0.0142
RRIRWRPPRLPRPRPRPDPNPRP	0.196
RRIRRRPPRLPRPRPRPWFPPRP	-0.44
RRIRVRPPRLPRPRPRPWSYPRP	-0.0283
RRIRWRPPRLPRPRPRPEKFPRP	0.0209
RRIRKRPPRLPRPRPRPRYIPRP	-0.268
RRIRVRPPRLPRPRPRPAMYPRP	3.58
RRIRDRPPRLPRPRPRPLFYPRP	-0.258
RRIRWRPPRLPRPRPRPFLDPRP	-0.233

Sequence	shrunken log2 fold change
RRIRGRPPRLPRPRPRPAEQPRP	1.25
RRIRCRPPRLPRPRPRPGYSPRP	-0.483
RRIRDRPPRLPRPRPRPLFNPRP	-0.375
RRIRSRPPRLPRPRPRPTNEPRP	0.308
RRIRPRPPRLPRPRPRPEPAPRP	0.572
RRIRSRPPRLPRPRPRPYHWPRP	-0.479
RRIRWRPPRLPRPRPRPCIWPRP	0.0256
RRIRLRPPRLPRPRPRPATIPRP	-0.0972
RRIRKRPPRLPRPRPRPEDFPRP	0.24
RRIRLRPPRLPRPRPRPHCTPRP	-0.533
RRIRMRPPRLPRPRPRPLIFPRP	-0.139
RRIRCRPPRLPRPRPRPSAMPRP	0.272
RRIRKRPPRLPRPRPRPTHQPRP	0.612
RRIRRRPPRLPRPRPRPRFMPRP	0.055
RRIRHRPPRLPRPRPRPPCTPRP	0.0262
RRIRRRPPRLPRPRPRPTQTPRP	0.338
RRIRVRPPRLPRPRPRPRCWPRP	0.294
RRIRFRPPRLPRPRPRPNAFPRP	0.00827
RRIRFRPPRLPRPRPRPPTIPRP	-0.105
RRIRVRPPRLPRPRPRPDDEPRP	-0.125
RRIRNRPPRLPRPRPRPVPYPRP	0.0481
RRIRMRPPRLPRPRPRPFIMPRP	-0.158
RRIRSRPPRLPRPRPRPRACPRP	0.403
RRIRKRPPRLPRPRPRPYHEPRP	-0.112
RRIRLRPPRLPRPRPRPYPMPRP	0.00832

Sequence	shrunken log2 fold change
RRIRDRPPRLPRPRPRPFHCPRP	-0.194
RRIRHRPPRLPRPRPRPHFEPRP	0.0715
RRIRHRPPRLPRPRPRPVTCPRP	0.0254
RRIRYRPPRLPRPRPRPSKEPRP	-0.0167
RRIRLRPPRLPRPRPRPCIKPRP	-0.752
RRIRNRPPRLPRPRPRPPDKPRP	0.182
RRIRCRPPRLPRPRPRPKCTPRP	-0.0914
RRIRERPPRLPRPRPRPNHAPRP	-0.239
RRIRLRPPRLPRPRPRPEHHPRP	-0.156
RRIRARPPRLPRPRPRPFPQPRP	0.512
RRIRFRPPRLPRPRPRPTLVPRP	-0.141
RRIRSRPPRLPRPRPRPKWVPRP	-0.209
RRIRRRPPRLPRPRPRPGETPRP	0.309
RRIRTRPPRLPRPRPRPHRGPRP	-0.154
RRIRWRPPRLPRPRPRPCHMPRP	-0.0433
RRIRKRPPRLPRPRPRPSMVPRP	-0.13
RRIRLRPPRLPRPRPRPSQSPRP	-0.511
RRIRDRPPRLPRPRPRPTCWPRP	1.09
RRIRMRPPRLPRPRPRPVKVPRP	0.0321
RRIRVRPPRLPRPRPRPPEMPRP	0.116
RRIRLRPPRLPRPRPRPQHNPRP	-0.507
RRIRHRPPRLPRPRPRPVERPRP	-0.00973
RRIRWRPPRLPRPRPRPEGQPRP	4.45
RRIRDRPPRLPRPRPRPPLTPRP	0.307
RRIRARPPRLPRPRPRPMMAPRP	0.466

Sequence	shrunken log2 fold change
RRIRQRPPRLPRPRPRPVACPRP	-0.0393
RRIRLRPPRLPRPRPRPEKGPRP	0.693
RRIRPRPPRLPRPRPRPGYTPRP	-0.0764
RRIRIRPPRLPRPRPRPCNDPRP	-0.0787
RRIRPRPPRLPRPRPRPAKRPRP	0.035
RRIRKRPPRLPRPRPRPSCKPRP	0.034
RRIRLRPPRLPRPRPRPVTTPRP	-0.216
RRIRYRPPRLPRPRPRPIHRPRP	-0.0635
RRIRQRPPRLPRPRPRPWCNPRP	-0.00865
RRIRDRPPRLPRPRPRPANYPRP	-0.148
RRIRHRPPRLPRPRPRPKGAPRP	-0.011
RRIRRRPPRLPRPRPRPVSYPRP	0.241
RRIRGRPPRLPRPRPRPGNNPRP	-0.0385
RRIRNRPPRLPRPRPRPLLVPRP	-0.199
RRIRKRPPRLPRPRPRPEIKPRP	0.977
RRIRERPPRLPRPRPRPNCTPRP	-0.102
RRIRFRPPRLPRPRPRPARVPRP	0.319
RRIRKRPPRLPRPRPRPAEQPRP	0.452
RRIRLRPPRLPRPRPRPAPDPRP	0.215
RRIRWRPPRLPRPRPRPTVIPRP	0.0385
RRIRARPPRLPRPRPRPWNLPRP	-0.0204
RRIRHRPPRLPRPRPRPFCPPRP	-0.772
RRIRWRPPRLPRPRPRPYLLPRP	-0.508
RRIRLRPPRLPRPRPRPRANPRP	0.126
RRIRIRPPRLPRPRPRPGPVPRP	-0.0724

Sequence	shrunken log2 fold change
RRIRIRPPRLPRPRPRPAPPPRP	0.398
RRIRYRPPRLPRPRPRPVTTPRP	-0.209
RRIRRRPPRLPRPRPRPSKRPRP	-0.0523
RRIRHRPPRLPRPRPRPYSTPRP	0.122
RRIRWRPPRLPRPRPRPFWVPRP	0.00637
RRIRVRPPRLPRPRPRPRNSPRP	0.1
RRIRWRPPRLPRPRPRPKSMPRP	-0.0141
RRIRVRPPRLPRPRPRPAQVPRP	0.427
RRIRRRPPRLPRPRPRPITDPRP	-0.101
RRIRARPPRLPRPRPRPCGSPRP	-0.0125
RRIRGRPPRLPRPRPRPWQPPRP	-0.12
RRIRERPPRLPRPRPRPQANPRP	-0.0396
RRIRERPPRLPRPRPRPCGTPRP	-0.00758
RRIRWRPPRLPRPRPRPMLEPRP	-0.0685
RRIRWRPPRLPRPRPRPAICPRP	-0.0928
RRIRERPPRLPRPRPRPKKEPRP	-0.0367
RRIRDRPPRLPRPRPRPEHHPRP	0.155
RRIRPRPPRLPRPRPRPGEIPRP	0.21
RRIRRRPPRLPRPRPRPLHVPRP	-0.125
RRIRVRPPRLPRPRPRPGQEPRP	0.0329
RRIRTRPPRLPRPRPRPYRWPRP	-0.281
RRIRPRPPRLPRPRPRPNPVPRP	-0.0737
RRIRYRPPRLPRPRPRPMKSPRP	-0.416
RRIRERPPRLPRPRPRPGLFPRP	-0.0491
RRIRVRPPRLPRPRPRPDYLPRP	-0.222
